Measured values taken from article PMC10107573.

Target: recombinant biotinylated SARS-CoV-2 spike RBD, wild type (SARS-CoV-2) (UniProt P0DTC2)
Experiment: BLI
Settings: bispecific antibody

Substance	Kd [nM]
bispecific antibody BI-1C2C (IgG-ScFv format, from mAbs 13-1C and 6-2C) (from UniProt P01857)	2.16
bispecific antibody BI-2C5B (IgG-ScFv format: 6-2C IgG with 10-5B ScFv) (from UniProt P01857)	4.71
bispecific antibody BI-5B2C (IgG-ScFv format: 10-5B IgG with 6-2C ScFv) (from UniProt P01857)	4.89
bispecific antibody BI-2C1C (IgG-ScFv format, from mAbs 6-2C and 13-1C) (from UniProt P01857)	1.04
